Data taken from patent publication US20220306751A1 (MYTHIC THERAPEUTICS, published 2022).

T1: CD123 Protein, His Tag, Acro Biosciences Cat. No. ILA-H52H6 (Homo sapiens (Human), UniProt P26951 19-305)
T1 construct: Bought protein; not shown: His tag
T1 sequence: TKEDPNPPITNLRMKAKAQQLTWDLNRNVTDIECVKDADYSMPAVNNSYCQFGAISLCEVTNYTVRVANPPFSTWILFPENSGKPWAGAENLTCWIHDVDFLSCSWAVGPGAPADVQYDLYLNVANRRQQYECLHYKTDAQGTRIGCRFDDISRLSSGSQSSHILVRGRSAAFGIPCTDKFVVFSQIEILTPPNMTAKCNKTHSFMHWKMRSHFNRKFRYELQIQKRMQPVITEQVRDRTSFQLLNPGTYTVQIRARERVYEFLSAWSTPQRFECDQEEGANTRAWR


biological target: T2, cell surface CD123 on EOL-1 cells (CD123+) (human, UniProt P26951 19-378); test: flow cytometry on EOL-1 (CD123+) cells, anti-human IgG Alexa Fluor 488; Example 16 calls the fitted value KD
T2 construct: EOL-1 cells, DSMZ ACC 386
Method: 100,000 EOL-1 cells (DSMZ ACC 386) were seeded per well in a 96 well deep well plate. IMGN632 and a pH engineered antibody variant were serially diluted at a 1:3 dilution in ice cold FC buffer (phosphate buffered saline (PBS), pH 7.4+2 mM ethylenediaminetetraacetic acid (EDTA)+2% (v/v) HI FBS). The plates were spun at 2,000 RPM for 2 minuets, the supernatant was removed, and 100 μL of diluted antibody was added to each well with final concentration ranging from 60 nM to 1 pM and incubated for 2 hours at 4° C. Post incubation, the cells were spun at 2000 rpm for 2 min and supernatant was discarded. Cells were washed twice with 500 μL of ice-cold FC buffer and resuspended with […]. The cells were then transferred from the deep well plate to 96 well round bottom plate, spun at 2000 rpm for 2 min and incubated with 100 μL of 10 μg/mL Alexa Fluor 488 conjugated goat anti-human IgG secondary antibody (ThermoFisher Scientific, A11013) for 30 min. Post incubation, cells were washed with FC buffer and resuspended in 100 μL of FC buffer to read on a BD Accuri C6 flow cytometer. Binding affinity was measured as a dissociation constant KD by GraphPad Prism assuming Michaelis-Menten binding kinetics.

IC50 [pM] | Binder
34 | IMGN632 (antibody, V domains shown, IgG from Expi293 supernatant; also called MYT1251; starting ABPC) VH: QVQLVQSGAEVKKPGASVKVSCKASGYIFTSSIMHWVRQAPGQGLEWIGYIKPYNDGTKYNEKFKGRATLTSDRSTSTAYMELSSLRSEDTAVYYCAREGGNDYYDTMDYWGQGTLVTVSS VL: DIQMTQSPSSLSASVGDRVTITCRASQDINSYLSWFQQKPGKAPKTLIYRVNRLVDGVPSRFSGSGSGNDYTLTISSLQPEDFATYYCLQYDAFPYTFGQGTKVEIK
51 | MYT2758 (antibody, V domains shown, IgG) VH: QVQLVQSGAEVKKPGASVKVSCKASGYIFTSSIMAWVRQAPGQGLEWIGYIKPYNDGTKYNEKFKGRATLTSDRSTSTAYMELSSLRSEDTAVYYCAREGGNDYYDHMDYWGQGTLVTVSS VL: DIQMTQSPSSLSASVGDRVTITCRASQDINSYLSWFQQKPGKAPKTLIYRVNRLVDGVPSRFSGSGSGNDYTLTISSLQPEDFATYYCLQYDAFPYTFGQGTKVEIK

biological target: T1, CD123 Protein, His Tag, Acro …; test: BLI, IgG on anti-human Fc sensor, pH 7.4 and pH 5.4

binding result | Binder
no binding (tested: 50 nM) | MYT1281 (antibody, V domains shown, IgG) VH: QVQLVQSGAEVKKPGASVKVSCKASGYIFTSSIMHWVRQAPGQGLEWIGYIKPYNDGTKYNEKFKGRATLTSDRSTSTAYMELSSLRSEDTAVYYCARHGGNDYYDTMDYWGQGTLVTVSS VL: DIQMTQSPSSLSASVGDRVTITCRASQDINSYLSWFQQKPGKAPKTLIYRVNRLVDGVPSRFSGSGSGNDYTLTISSLQPEDFATYYCLQYDAFPYTFGQGTKVEIK
no binding (tested: 50 nM) | MYT1417 (antibody, V domains shown, IgG) VH: QVQLVQSGAEVKKPGASVKMSCKASGYTHTDYYMKWVKQAPGQGLEWIGDIIPSNGATFYNQKFKGKATLTVDRSISTAYMHLNRLRSDDTAVYYCTRSHLLRASWFAYWGQGTLVTVSS VL: DFVMTQSPDSLAVSLGERATINCKSSQSLLNSGNQKNYLTWYLQKPGQPPKLLIYWASTRESGVPDRFSGSGSGTDFTLTISSLQAEDVAVYYCQNDYSYPYTFGQGTKLEIK
no binding (tested: 50 nM) | MYT1424 (antibody, V domains shown, IgG) VH: QVQLVQSGAEVKKPGASVKMSCKASGYTFTDYYMKWVKQAPGQGLEWIGHIIPSNGATFYNQKFKGKATLTVDRSISTAYMHLNRLRSDDTAVYYCTRSHLLRASWFAYWGQGTLVTVSS VL: DFVMTQSPDSLAVSLGERATINCKSSQSLLNSGNQKNYLTWYLQKPGQPPKLLIYWASTRESGVPDRFSGSGSGTDFTLTISSLQAEDVAVYYCQNDYSYPYTFGQGTKLEIK
no binding (tested: 50 nM) | MYT1441 (antibody, V domains shown, IgG) VH: QVQLVQSGAEVKKPGASVKMSCKASGYTFTDYYMKWVKQAPGQGLEWIGDIIPSNGATFYNQKFKGKATLTVDRSISTAYMHLNRLRSDDTAVYYCHRSHLLRASWFAYWGQGTLVTVSS VL: DFVMTQSPDSLAVSLGERATINCKSSQSLLNSGNQKNYLTWYLQKPGQPPKLLIYWASTRESGVPDRFSGSGSGTDFTLTISSLQAEDVAVYYCQNDYSYPYTFGQGTKLEIK
no binding (tested: 50 nM) | MYT1444 (antibody, V domains shown, IgG) VH: QVQLVQSGAEVKKPGASVKMSCKASGYTFTDYYMKWVKQAPGQGLEWIGDIIPSNGATFYNQKFKGKATLTVDRSISTAYMHLNRLRSDDTAVYYCTRSALLRASWFAYWGQGTLVTVSS VL: DFVMTQSPDSLAVSLGERATINCKSSQSLLNSGNQKNYLTWYLQKPGQPPKLLIYWASTRESGVPDRFSGSGSGTDFTLTISSLQAEDVAVYYCQNDYSYPYTFGQGTKLEIK
no binding (tested: 50 nM) | MYT1427 (antibody, V domains shown, IgG) VH: QVQLVQSGAEVKKPGASVKMSCKASGYTFTDYYMKWVKQAPGQGLEWIGDIIHSNGATFYNQKFKGKATLTVDRSISTAYMHLNRLRSDDTAVYYCTRSHLLRASWFAYWGQGTLVTVSS VL: DFVMTQSPDSLAVSLGERATINCKSSQSLLNSGNQKNYLTWYLQKPGQPPKLLIYWASTRESGVPDRFSGSGSGTDFTLTISSLQAEDVAVYYCQNDYSYPYTFGQGTKLEIK
no binding (tested: 50 nM) | MYT1447 (antibody, V domains shown, IgG) VH: QVQLVQSGAEVKKPGASVKMSCKASGYTFTDYYMKWVKQAPGQGLEWIGDIIPSNGATFYNQKFKGKATLTVDRSISTAYMHLNRLRSDDTAVYYCTRSHLLHASWFAYWGQGTLVTVSS VL: DFVMTQSPDSLAVSLGERATINCKSSQSLLNSGNQKNYLTWYLQKPGQPPKLLIYWASTRESGVPDRFSGSGSGTDFTLTISSLQAEDVAVYYCQNDYSYPYTFGQGTKLEIK
no binding (tested: 50 nM) | MYT1443 (antibody, V domains shown, IgG) VH: QVQLVQSGAEVKKPGASVKMSCKASGYTFTDYYMKWVKQAPGQGLEWIGDIIPSNGATFYNQKFKGKATLTVDRSISTAYMHLNRLRSDDTAVYYCTRHHLLRASWFAYWGQGTLVTVSS VL: DFVMTQSPDSLAVSLGERATINCKSSQSLLNSGNQKNYLTWYLQKPGQPPKLLIYWASTRESGVPDRFSGSGSGTDFTLTISSLQAEDVAVYYCQNDYSYPYTFGQGTKLEIK
no binding (tested: 50 nM) | MYT1450 (antibody, V domains shown, IgG) VH: QVQLVQSGAEVKKPGASVKMSCKASGYTFTDYYMKWVKQAPGQGLEWIGDIIPSNGATFYNQKFKGKATLTVDRSISTAYMHLNRLRSDDTAVYYCTRSHLLRASHFAYWGQGTLVTVSS VL: DFVMTQSPDSLAVSLGERATINCKSSQSLLNSGNQKNYLTWYLQKPGQPPKLLIYWASTRESGVPDRFSGSGSGTDFTLTISSLQAEDVAVYYCQNDYSYPYTFGQGTKLEIK
no binding (tested: 50 nM) | MYT1425 (antibody, V domains shown, IgG) VH: QVQLVQSGAEVKKPGASVKMSCKASGYTFTDYYMKWVKQAPGQGLEWIGDHIPSNGATFYNQKFKGKATLTVDRSISTAYMHLNRLRSDDTAVYYCTRSHLLRASWFAYWGQGTLVTVSS VL: DFVMTQSPDSLAVSLGERATINCKSSQSLLNSGNQKNYLTWYLQKPGQPPKLLIYWASTRESGVPDRFSGSGSGTDFTLTISSLQAEDVAVYYCQNDYSYPYTFGQGTKLEIK

biological target: T1, CD123 Protein, His Tag, Acro …; test: BLI, IgG on anti-human Fc sensor, 50 nM CD123, pH 7.4 and pH 5.4
Procedure, shortened: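 Single His/Ala heavy-chain CDR variants were expressed in Expi293 and captured from diluted supernatant on anti-human Fc sensors. By BLI, association with 50 nM His-tagged CD123 ran for 120 s and dissociation for 300–600 s, all in PBST pH 7.4. The full cycle was repeated separately in PBST pH 5.4.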

binding result | Binder
binds | MYT1453 (antibody, V domains shown, IgG) VH: QVQLVQSGAEVKKPGASVKMSCKASGYTFTDYYMKWVKQAPGQGLEWIGDIIPSNGATFYNQKFKGKATLTVDRSISTAYMHLNRLRSDDTAVYYCTRSHLLRASWFAHWGQGTLVTVSS VL: DFVMTQSPDSLAVSLGERATINCKSSQSLLNSGNQKNYLTWYLQKPGQPPKLLIYWASTRESGVPDRFSGSGSGTDFTLTISSLQAEDVAVYYCQNDYSYPYTFGQGTKLEIK
binds | MYT1448 (antibody, V domains shown, IgG) VH: QVQLVQSGAEVKKPGASVKMSCKASGYTFTDYYMKWVKQAPGQGLEWIGDIIPSNGATFYNQKFKGKATLTVDRSISTAYMHLNRLRSDDTAVYYCTRSHLLRHSWFAYWGQGTLVTVSS VL: DFVMTQSPDSLAVSLGERATINCKSSQSLLNSGNQKNYLTWYLQKPGQPPKLLIYWASTRESGVPDRFSGSGSGTDFTLTISSLQAEDVAVYYCQNDYSYPYTFGQGTKLEIK
binds | MYT1449 (antibody, V domains shown, IgG) VH: QVQLVQSGAEVKKPGASVKMSCKASGYTFTDYYMKWVKQAPGQGLEWIGDIIPSNGATFYNQKFKGKATLTVDRSISTAYMHLNRLRSDDTAVYYCTRSHLLRAHWFAYWGQGTLVTVSS VL: DFVMTQSPDSLAVSLGERATINCKSSQSLLNSGNQKNYLTWYLQKPGQPPKLLIYWASTRESGVPDRFSGSGSGTDFTLTISSLQAEDVAVYYCQNDYSYPYTFGQGTKLEIK
binds | MYT1452 (antibody, V domains shown, IgG) VH: QVQLVQSGAEVKKPGASVKMSCKASGYTFTDYYMKWVKQAPGQGLEWIGDIIPSNGATFYNQKFKGKATLTVDRSISTAYMHLNRLRSDDTAVYYCTRSHLLRASWFHYWGQGTLVTVSS VL: DFVMTQSPDSLAVSLGERATINCKSSQSLLNSGNQKNYLTWYLQKPGQPPKLLIYWASTRESGVPDRFSGSGSGTDFTLTISSLQAEDVAVYYCQNDYSYPYTFGQGTKLEIK
binds | MYT1451 (antibody, V domains shown, IgG) VH: QVQLVQSGAEVKKPGASVKMSCKASGYTFTDYYMKWVKQAPGQGLEWIGDIIPSNGATFYNQKFKGKATLTVDRSISTAYMHLNRLRSDDTAVYYCTRSHLLRASWHAYWGQGTLVTVSS VL: DFVMTQSPDSLAVSLGERATINCKSSQSLLNSGNQKNYLTWYLQKPGQPPKLLIYWASTRESGVPDRFSGSGSGTDFTLTISSLQAEDVAVYYCQNDYSYPYTFGQGTKLEIK
